Measured values from patent publication US20240218024A1, “METHODS AND COMPOSITIONS FOR TREATMENT OF VIRAL INFECTION” (TECHNION RESEARCH & DEVELOPMENT FOUNDATION LIMITED, priority 2021, published 2024).

Test system: BL21-DE3 E. coli cells
Assay: slncRNA and tdPCP-mCherry expression in bacteria (puncta, burst analysis, flow cytometry)
Type: cell-based
Conditions: slncRNA co-expressed with tdPCP-mCherry, overnight induction

B1: PCP-4×/QCP-5×: class II slncRNA, four native PCP binding sites and five native QB coat protein hairpins (SEQ ID NO: 29) (nucleic acid)
chain: GAGAAACCTAGGCGATTATGACGTTATTCTACTTTGATTGTGATGCATGTCTAAGACAGCATCGCCTGCTGGTCGTGACTAAGGAGTTTATATGGAAACCCTTACGAGACAATGCTACCTTACCGGTCGGGCCCACTTGTTTTTACCCATGATGCATGTCTAAGACAGCATCGCCTGCTGGTCGTGACTAAGGAGTTTATATGGAAACCCTTAGAAACAGCCGTCGCCTTGAAGCCGAGAACAATGCATGTCTAAGACAGCATATGGATTGCCTGTCTGTTAAGGAGTTTATATGGAAACCCTTACATCAGGCTTCGCAGTATGCAACGCTTGCGATGCATGTCTAAGACAGCATTTCACCGCTTTCCTAAGTAAGGAGTTTATATGGAAACCCTTAGTACTAACTCGCAGATGCATGTCTAAGACAGCATCAGAAACGTCACGTCCTGGCTGTCGA
Q: B1 was tested. Which “puncta formation in cells” value did it give?
A: formation of bright puncta at the cell poles
